# In US6410248:
# Target: Zif268 zinc fingers 1-3 (wild type) (UniProt P08046 SEQ:1-90)
# Experiment: EMSA; 15 mM Hepes-NaOH pH 7.9, 50 mM KCl, 50 mM K glutamate, 50 mM K acetate, 5 mM MgCl2, 20 uM ZnSO4, no competitor DNA
binder,measurement,value
Zif268 site (dsDNA) DNA 1: CCAGTAGCGGGGGCGTCCTCG DNA 2: CGAGGACGCCCCCGCTACTGG,Kd,10 pM
